Test results published in patent US20260166139A1.
pEC50: −log10 of the molar value. Where “and” joins values, the source holds several entries; their conditions need not be identical. Equal values may be shown once.

How the values were obtained:
human CTLA4 (human) [1] = biological target: human CTLA4 (human) (UniProt P16410); experiment: ELISA, coat CTLA4 0.5 ug/ml; antibody 1 ug/ml
murine CTLA4 (murine) [2] = biological target: murine CTLA4 (murine) (UniProt P09793); experiment: ELISA on coated CTLA4, source Mouse (row of 8D2)
human CTLA4 (human) [3] = biological target: human CTLA4 (human) (UniProt P16410); experiment: ELISA on coated CTLA4, source Human (row of 8D2H3L3)
murine CTLA4 (murine) [4] = biological target: murine CTLA4 (murine) (UniProt P09793); experiment: ELISA on coated CTLA4, source Mouse (row of 8D2(Re))
human CTLA4 (human) [5] = biological target: human CTLA4 (human) (UniProt P16410); experiment: ELISA, coat human CTLA4 0.5 ug/ml; antibody 0 (blank)
human CTLA4 (human) [6] = biological target: human CTLA4 (human) (UniProt P16410); experiment: ELISA on coated CTLA4, source Human (row of 8D2H2L17)
human CTLA4 (human) [7] = biological target: human CTLA4 (human) (UniProt P16410); experiment: ELISA, coat CTLA4 0.5 ug/ml; antibody 1:3 (start 1 ug/ml)
human CTLA4 (human) [8] = biological target: human CTLA4 (human) (UniProt P16410); experiment: ELISA, coat CTLA4 0.5 ug/ml; antibody 1:27 (start 1 ug/ml)
human CTLA4 (human) [9] = biological target: human CTLA4 (human) (UniProt P16410); experiment: ELISA, coat CTLA4 0.5 ug/ml; antibody 1:729 (start 1 ug/ml)
CTLA4-mFc [10] = experiment: competitive ELISA, competitor B7-1; control run with 8D2H1L1
Sequence of CTLA4-mFc (chain, as listed by the source limits assumed): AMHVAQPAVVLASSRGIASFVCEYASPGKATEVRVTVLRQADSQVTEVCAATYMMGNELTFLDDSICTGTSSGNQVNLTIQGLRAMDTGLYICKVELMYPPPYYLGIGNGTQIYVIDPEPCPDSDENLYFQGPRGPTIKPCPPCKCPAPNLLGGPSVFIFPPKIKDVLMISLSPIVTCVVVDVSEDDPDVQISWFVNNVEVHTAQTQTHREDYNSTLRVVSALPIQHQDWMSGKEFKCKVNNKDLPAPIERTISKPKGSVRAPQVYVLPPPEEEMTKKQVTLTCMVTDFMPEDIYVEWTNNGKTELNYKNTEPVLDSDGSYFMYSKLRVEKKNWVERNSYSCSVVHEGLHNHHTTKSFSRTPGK

CTLA4-mFc [11] = experiment: competitive ELISA, competitor B7-2; control run with 8D2H3L3
human CTLA4 (human) [12] = biological target: human CTLA4 (human) (UniProt P16410); experiment: ELISA, coat human CTLA4 0.5 ug/ml; antibody 1:3 (start 1 ug/ml)
human CTLA4 (human) [13] = biological target: human CTLA4 (human) (UniProt P16410); experiment: ELISA, coat human CTLA4 0.5 ug/ml; antibody 1:27 (start 1 ug/ml)
human CTLA4 (human) [14] = biological target: human CTLA4 (human) (UniProt P16410); experiment: ELISA, coat human CTLA4 0.5 ug/ml; antibody 1:243 (start 1 ug/ml)
human CTLA4 (human) [15] = biological target: human CTLA4 (human) (UniProt P16410); experiment: ELISA, coat human CTLA4 0.5 ug/ml; antibody 1:729 (start 1 ug/ml)
human CTLA4 (human) [16] = biological target: human CTLA4 (human) (UniProt P16410); experiment: ELISA, coat human CTLA4 0.5 ug/ml; antibody 1:243 (start 1 ug/ml); remark: listed apart in the source
human CTLA4 (human) [17] = biological target: human CTLA4 (human) (UniProt P16410); experiment: ELISA, coat human CTLA4 0.5 ug/ml; antibody 1:729 (start 1 ug/ml); remark: listed apart in the source
[18] = biological target: monkey CTLA4-hFc (monkey); experiment: ELISA, coat monkey CTLA4-hFc 0.25 ug/ml; antibody 1:3 (start 1 ug/ml)
[19] = biological target: monkey CTLA4-hFc (monkey); experiment: ELISA, coat monkey CTLA4-hFc 0.25 ug/ml; antibody 1:9 (start 1 ug/ml)
[20] = biological target: monkey CTLA4-hFc (monkey); experiment: ELISA, coat monkey CTLA4-hFc 0.25 ug/ml; antibody 1:243 (start 1 ug/ml)
CTLA4-mFc [21] = experiment: competitive ELISA, CTLA4-mFc coated, competitor B7/2-His; antibody 1 µg/ml
CTLA4-mFc [22] = experiment: competitive ELISA, B7/1-hFc coated (competitor), CTLA4-mFc added; antibody 5 µg/ml
CTLA4-mFc [23] = experiment: competitive ELISA, CTLA4-mFc coated, competitor B7/2-His; antibody 3 µg/ml diluted 1:81
CTLA4-mFc [24] = experiment: competitive ELISA, CTLA4-mFc coated, competitor B7/2-His; antibody 3 µg/ml diluted 1:243
CTLA4-mFc [25] = experiment: competitive ELISA, CTLA4-mFc coated, competitor B7/2-His; antibody 1 µg/ml diluted 1:243
CTLA4-mFc [26] = experiment: competitive ELISA, CTLA4-mFc coated, competitor B7/2-His; antibody 1.5 µg/ml diluted 1:27
CTLA4-mFc [27] = experiment: competitive ELISA, CTLA4-mFc coated, competitor B7/2-His; antibody 1.5 µg/ml diluted 1:81
CTLA4-mFc [28] = experiment: competitive ELISA, B7/1-hFc coated (competitor), CTLA4-mFc added; antibody 0 (no antibody)
CTLA4-mFc [29] = experiment: competitive ELISA, CTLA4-mFc coated, competitor B7/2-His; antibody 1.5 µg/ml diluted 1:729
CTLA4-mFc [30] = experiment: competitive ELISA, B7/1-hFc coated (competitor), CTLA4-mFc added; antibody 5 µg/ml diluted 1:9
CTLA4-mFc [31] = experiment: competitive ELISA, B7/1-hFc coated (competitor), CTLA4-mFc added; antibody 5 µg/ml diluted 1:27
CTLA4-mFc [32] = experiment: competitive ELISA, B7/1-hFc coated (competitor), CTLA4-mFc added; antibody 5 µg/ml diluted 1:81
CTLA4-mFc [33] = experiment: competitive ELISA, B7/1-hFc coated (competitor), CTLA4-mFc added; antibody 5 µg/ml diluted 1:27; remark: listed apart in the source
CTLA4-mFc [34] = experiment: competitive ELISA, B7/1-hFc coated (competitor), CTLA4-mFc added; antibody 5 µg/ml diluted 1:243
CTLA4-mFc [35] = experiment: competitive ELISA, B7/1-hFc coated (competitor), CTLA4-mFc added; antibody 5 µg/ml diluted 1:729
CTLA4-mFc [36] = experiment: competition ELISA, coat B7/1-hFc 0.2 ug/ml (competitor), CTLA4-mFc 0.3 ug/ml detected; antibody 3 ug/ml
CTLA4-mFc [37] = experiment: competition ELISA, coat B7/1-hFc 0.2 ug/ml (competitor), CTLA4-mFc 0.3 ug/ml detected; antibody 1:729 (start 3 ug/ml)

Sequence of control antibody 11.2.1 (VH): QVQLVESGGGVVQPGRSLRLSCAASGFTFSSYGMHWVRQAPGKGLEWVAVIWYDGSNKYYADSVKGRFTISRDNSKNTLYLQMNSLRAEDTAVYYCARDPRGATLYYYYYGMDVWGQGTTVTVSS
Sequence of control antibody 11.2.1 (VL): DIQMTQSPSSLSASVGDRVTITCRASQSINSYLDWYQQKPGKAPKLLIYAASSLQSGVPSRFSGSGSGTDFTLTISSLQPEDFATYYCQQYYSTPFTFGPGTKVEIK
Sequence of human CTLA4 (human) (P16410 36-161 limits assumed): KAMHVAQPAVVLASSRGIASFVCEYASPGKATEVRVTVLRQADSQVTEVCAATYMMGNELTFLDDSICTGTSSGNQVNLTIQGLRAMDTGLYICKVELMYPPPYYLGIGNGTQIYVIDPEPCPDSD

control antibody 11.2.1
absorbance at 450 nm (human CTLA4 (human) [1]): 2.75 and 2.69
pEC50 (murine CTLA4 (murine) [2]): 10.64
pEC50 (human CTLA4 (human) [3]): 10.05
pEC50 (murine CTLA4 (murine) [4]): 10.64
absorbance at 450 nm (human CTLA4 (human) [5]): 0.057 and 0.061
pEC50 (human CTLA4 (human) [6]): 10.12
absorbance at 450 nm (human CTLA4 (human) [7]): 2.56 and 2.66
absorbance at 450 nm (human CTLA4 (human) [8]): 2.13 and 2.28
absorbance at 450 nm (human CTLA4 (human) [9]): 0.32 and 0.31
pEC50 (CTLA4-mFc [10]): 8.77
pEC50 (CTLA4-mFc [11]): 9.76
absorbance at 450 nm (human CTLA4 (human) [12]): 1.82 and 2.05
absorbance at 450 nm (human CTLA4 (human) [13]): 0.893 and 0.682
absorbance at 450 nm (human CTLA4 (human) [14]): 0.536 and 0.552
absorbance at 450 nm (human CTLA4 (human) [15]): 0.253 and 0.263
absorbance at 450 nm (human CTLA4 (human) [16]): 0.223 and 0.219
absorbance at 450 nm (human CTLA4 (human) [17]): 0.127 and 0.136
absorbance at 450 nm [18]: 1.54 and 1.46
absorbance at 450 nm [19]: 1.11 and 1.05
absorbance at 450 nm [20]: 0.13 and 0.172
absorbance at 450 nm (CTLA4-mFc [21]): 0.04
absorbance at 450 nm (CTLA4-mFc [22]): 0.06
absorbance at 450 nm (CTLA4-mFc [23]): 1.12 and 0.965
absorbance at 450 nm (CTLA4-mFc [24]): 1.24 and 1.21
absorbance at 450 nm (CTLA4-mFc [25]): 0.84 and 0.85
absorbance at 450 nm (CTLA4-mFc [26]): 0.622 and 0.529
absorbance at 450 nm (CTLA4-mFc [27]): 0.805 and 0.649
absorbance at 450 nm (CTLA4-mFc [28]): 0.683 and 0.735
absorbance at 450 nm (CTLA4-mFc [29]): 0.981 and 0.746
absorbance at 450 nm (CTLA4-mFc [30]): 0.33 and 0.3
absorbance at 450 nm (CTLA4-mFc [31]): 0.488 and 0.369
absorbance at 450 nm (CTLA4-mFc [32]): 0.698 and 0.66
absorbance at 450 nm (CTLA4-mFc [33]): 1.14 and 1.19
absorbance at 450 nm (CTLA4-mFc [34]): 0.755 and 0.9
absorbance at 450 nm (CTLA4-mFc [35]): 1.32 and 1.31
absorbance at 450 nm (CTLA4-mFc [36]): 0.101 and 0.105
absorbance at 450 nm (CTLA4-mFc [37]): 0.993 and 0.841
